Results reported in US20090239794A1, “HCV F PROTEIN AND USES THEREOF” (priority 2004, published 2009).

Key:
[1] = molecular target: Fmut8Δ11 protein (recombinant ARFP (hepatitis C virus subtype 1a (HCV-1a)) (UniProt P0C045)); experiment: ELISA Control 4: ARFP, no first antibody, secondary alone; row 1/200
[2] = molecular target: Fmut8Δ11 protein (recombinant ARFP, truncated HCV-1a F protein lacking the first 11 N-terminal amino acids) (HCV-1a) (UniProt P0C045); experiment: ELISA Control 4: ARFP, no serum, secondary antibody alone; row 1/100
[3] = molecular target: Fmut8Δ11 protein (recombinant ARFP (hepatitis C virus subtype 1a (HCV-1a)) (UniProt P0C045)); experiment: ELISA Control 4: ARFP, no first antibody, secondary alone; row 1/800
[4] = molecular target: Fmut8Δ11 protein (recombinant ARFP, truncated HCV-1a F protein lacking the first 11 N-terminal amino acids) (HCV-1a) (UniProt P0C045); experiment: ELISA Control 4: ARFP, no serum, secondary antibody alone; row 1/400
[5] = molecular target: Fmut8Δ11 protein (recombinant ARFP (hepatitis C virus subtype 1a (HCV-1a)) (UniProt P0C045)); experiment: ELISA Control 4: ARFP, no first antibody, secondary alone; row 1/1600
[6] = molecular target: Fmut8Δ11 protein (recombinant ARFP, truncated HCV-1a F protein lacking the first 11 N-terminal amino acids) (HCV-1a) (UniProt P0C045); experiment: ELISA Control 4: ARFP, no serum, secondary antibody alone; row 1/1600
[7] = molecular target: Fmut8Δ11 protein (recombinant ARFP (hepatitis C virus subtype 1a (HCV-1a)) (UniProt P0C045)); experiment: ELISA Control 4: ARFP, no first antibody, secondary alone; row 1/400
[8] = molecular target: Fmut8Δ11 protein (recombinant ARFP (hepatitis C virus subtype 1a (HCV-1a)) (UniProt P0C045)); experiment: ELISA Control 4: ARFP, no first antibody, secondary alone; row 1/50
[9] = molecular target: Fmut8Δ11 protein (recombinant ARFP, truncated HCV-1a F protein lacking the first 11 N-terminal amino acids) (HCV-1a) (UniProt P0C045); experiment: ELISA Control 4: ARFP, no serum, secondary antibody alone; row 1/200
[10] = molecular target: Fmut8Δ11 protein (recombinant ARFP, truncated HCV-1a F protein lacking the first 11 N-terminal amino acids) (HCV-1a) (UniProt P0C045); experiment: ELISA Control 4: ARFP, no serum, secondary antibody alone; row 1/800
[11] = molecular target: Fmut8Δ11 protein (recombinant ARFP, truncated HCV-1a F protein lacking the first 11 N-terminal amino acids) (HCV-1a) (UniProt P0C045); experiment: ELISA Control 4: ARFP, no serum, secondary antibody alone; row 1/50
[12] = molecular target: Fmut8Δ11 protein (recombinant ARFP (hepatitis C virus subtype 1a (HCV-1a)) (UniProt P0C045)); experiment: ELISA Control 4: ARFP, no first antibody, secondary alone; row 1/100

AP conjugated goat anti-mouse Ig [G, A, M] (antibody)
OD410 [1]: 0.106 OD410
OD410 [2]: 0.129
OD410 [3]: 0.109 OD410
OD410 [4]: 0.111
OD410 [5]: 0.109 OD410
OD410 [6]: 0.111
OD410 [7]: 0.11 OD410
OD410 [8]: 0.194 OD410
OD410 [9]: 0.108
OD410 [10]: 0.112
OD410 [11]: 0.131
OD410 [12]: 0.127 OD410
